The experiment addresses RSV F0 Fd glycoprotein (Human respiratory syncytial virus; …, UniProt P03420, stabilised, glycosylated). The experiment in a line: SEC.

B1: palivizumab Fab (Fab, V domains shown)
VH: QVTLRESGPALVKPTQTLTLTCTFSGFSLSTSGMSVGWIRQPPGKALEWLADIWWDDKKDYNPSLKSRLTISKDTSKNQVVLKVTNMDPADTATYYCARSMITNWYFDVWGAGTTVTVSS
VL: DIQMTQSPSTLSASVGDRVTITCKCQLSVGYMHWYQQKPGKAPKLLIYDTSKLASGVPSRFSGSGSGTEFTLTISSLQPDDFATYYCFQGSGYPFTFGGGTKLEIK
Take B1: the “stoichiometry N” value was 2.97 Fabs per trimer.

For the origin of these results see paper PMC3050594 (Nature structural & molecular biology, 2010).
